Measured values as given in PMC5437177.

Biological target: T1, ABI5 (Arabidopsis thaliana) (UniProt Q9SJN0)
T1 sequence: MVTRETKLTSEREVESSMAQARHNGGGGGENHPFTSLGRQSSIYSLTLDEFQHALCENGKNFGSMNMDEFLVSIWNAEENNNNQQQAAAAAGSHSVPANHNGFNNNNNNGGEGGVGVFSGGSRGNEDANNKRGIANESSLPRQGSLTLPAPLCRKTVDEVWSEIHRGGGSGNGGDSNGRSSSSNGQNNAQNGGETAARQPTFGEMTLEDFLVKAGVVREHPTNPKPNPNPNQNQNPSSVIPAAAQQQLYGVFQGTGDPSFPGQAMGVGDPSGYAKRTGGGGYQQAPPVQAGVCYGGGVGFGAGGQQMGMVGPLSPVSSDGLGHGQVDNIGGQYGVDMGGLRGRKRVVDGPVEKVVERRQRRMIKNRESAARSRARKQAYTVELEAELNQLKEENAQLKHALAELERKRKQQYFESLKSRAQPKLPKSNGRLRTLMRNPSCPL
Test: EMSA
Conditions: 25 mM HEPES pH 8.0, 40 mM KCl, 5 mM MgCl2, 1 mM DTT, 1 mM EDTA, 8% glycerol, 1 ug/uL poly(dI-dC), 30 min room temperature; 5% native PAGE at 4 C

“TCCTGAAATGGATCAACAATTGTCTAATTATGGTATAGTATCTGGCGAAATCAAAGACGATATCATCCACACGTAATTAGTTTGACTATTAATACGAGGATTATCATTTGGATAAGGATTAACAAAGACAAAACACATACGTGTTTTGGTGTTGAGCTAAAATAAGATATTTTGGCTCTCGCTATAAA (double strand) [pCAT1 wild type probe (-296/-108)]” was tested. Which binding did it give?
The binding was “binds”.

For “TCCTGAAATGGATCAACAATTGTCTAATTATGGTATAGTATCTGGCGAAATCAAAGACGATATCATCCACACGTAATTAGTTTGACTATTAATACGAGGATTATCATTTGGATAAGGATTAACAAAGACAAAACACATTTTTGTTTTGGTGTTGAGCTAAAATAAGATATTTTGGCTCTCGCTATAAA (double strand) [pCAT1 box2 mutation probe]”, which binding is on record?
Its binding is “binds more weakly”.

For “TCCTGAAATGGATCAACAATTGTCTAATTATGGTATAGTATCTGGCGAAATCAAAGACGATATCATCCACTTTTAATTAGTTTGACTATTAATACGAGGATTATCATTTGGATAAGGATTAACAAAGACAAAACACATACGTGTTTTGGTGTTGAGCTAAAATAAGATATTTTGGCTCTCGCTATAAA (double strand) [pCAT1 box1 mutation probe]”, which binding is on record?
The binding was “binds more weakly”.
